The results in this text go back to patent publication US7261893 (Pfizer, dated 2007).

Several values for one entry are separate records, joined by “and”; a condition that tells them apart may be missing. Equal entries are not always repeated.

B1: Myo22 scFv (scFv)
scFv: EVQLLESGGGLVQPGGSLRLSCAASGFTFSSYAMSWVRQAPGKGLEWVSAISGSGGSTYYADSVKGRFTISRDNSKNTLYLQMNSLRAEDTAVYYCERMGPCTGGSCYDTLGNWGRGTLVTVSSGGGGSGGGGSGGGGSAQSVLTQPPSVSGAPGQRVTISCTGSSSNIGAGYDVHWYQQLPGAAPKLLIRGNGNRPSGVPDRFSVSKSGYSASLAITGLQPADEGVYYCQSYDSSLSGSKVFGQGTKLTVLGAAAHHHHHH
notes: tags from the vector are not described; also called scFv of Myo22
B2: Myo28 human IgG1 antibody (antibody, V domains shown)
VH: QVTLKESGGGLVQPGGSLRLSCAASGFTFSRYVINWVRQAPGKGLEWVSAISVTGGSTAYADSVRGRFTISRDNSKNTLYLQMNSLRAEDTAVYYCTKGQWERGSYYFDYWGRGTLVTVSS
VL: QSVLTQPPSVSGAPGQRVTISCTGSSSNIGDGYDVHWYQQLPGTAPKLLIYGNSHRPSGVPDRFSGSKSDTSASLAITGLQVEDEADYFCHSYDGSVSGWIFGGGTKLTVLG
B3: Myo29 scFv (scFv)
scFv: QVQLVQSGAEVKKPGASVKVSCKASGYTFTSYYMHWVRQAPGQGLEWMGIINPSGGSTSYAQKFQGRVTMTRDTSTSTVYMELSSLRSEDTAVYYCARDENWGFDPWGQGTLVTVSSGGGGSGGGGSGGGGSALSYELTQPPSVSVSPGQTATITCSGHALGDKFVSWYQQGSGQSPVLVIYDDTQRPSGIPGRFSGSNSGNTATLTISGTQAMDEADYFCQAWDSSFVFGGGTKVTVLGAAAHHHHHH
notes: tags from the vector are not described; also called scFv of Myo29
B4: Myo29 human IgG1 antibody (antibody, V domains shown)
VH: QVQLVQSGAEVKKPGASVKVSCKASGYTFTSYYMHWVRQAPGQGLEWMGIINPSGGSTSYAQKFQGRVTMTRDTSTSTVYMELSSLRSEDTAVYYCARDENWGFDPWGQGTLVTVSS
VL: SYELTQPPSVSVSPGQTATITCSGHALGDKFVSWYQQGSGQSPVLVIYDDTQRPSGIPGRFSGSNSGNTATLTISGTQAMDEADYFCQAWDSSFVFGGGTKVTVLG
B5: Myo28 scFv (scFv)
scFv: QVTLKESGGGLVQPGGSLRLSCAASGFTFSRYVINWVRQAPGKGLEWVSAISVTGGSTAYADSVRGRFTISRDNSKNTLYLQMNSLRAEDTAVYYCTKGQWERGSYYFDYWGRGTLVTVSSGGGGSGGGGSGGGGSAQSVLTQPPSVSGAPGQRVTISCTGSSSNIGDGYDVHWYQQLPGTAPKLLIYGNSHRPSGVPDRFSGSKSDTSASLAITGLQVEDEADYFCHSYDGSVSGWIFGGGTKLTVLGAAAHHHHHH
notes: tags from the vector are not described; also called scFv of Myo28
B6: mature human BMP-11 (ligand, UniProt O95390 299-407, looked up)
chain: NLGLDCDEHSSESRCCRYPLTVDFEAFGWDWIIAPKRYKANYCSGQCEYMFMQKYPHTHLVQQANPRGSAGPCCTPTKMSPINMLYFNDKQQIIYGKIPGMVVDRCGCS
notes: mature; also called GDF-11; biotinylated BMP-11

For assay [1], the target named is T1, mature human GDF-8 (growth and differentiation factor-8) (human, UniProt O14793 267-375).
T1 construct: also called myostatin; mature GDF-8
Kind of assay: inhibition of bioGDF-8 binding to plate-coated ActRIIB-Fc, purified scFv titrated, DELFIA TRF.

For assay [2], the target named is T1, mature human GDF-8 (growth and …). The assay can be described thus: cell-based or functional assay.
The assay “mature human BMP-11” deals with B6. Kind of assay: inhibition of biotinylated BMP-11 (10 ng/ml) binding to plate-coated ActRIIB-Fc, ELISA, Myo29 preincubated with the ligand. Background: In an ELISA, binding on a coated surface is turned into a signal by an enzyme label.
Assay [3] deals with T1, mature human GDF-8 (growth and …). The assay can be described thus: inhibition of biotinylated GDF-8 (10 ng/ml) binding to plate-coated ActRIIB-Fc, ELISA, Myo29 preincubated with the ligand.
Assay [4] has as its target T2, Recombinant ActRIIB-Fc chimera (R&D Systems, Cat. No. 339-RB/CF) (UniProt Q13705 19-134).
T2 construct: Bought reagent, coated on the plate; also called ActRIIB receptor; Fc part of the bought chimera not given
The assay can be described thus: ELISA, biotinylated ligand titrated on plate-coated ActRIIB-Fc, streptavidin-HRP.

T2 sequence (Q13705 19-134, change not shown): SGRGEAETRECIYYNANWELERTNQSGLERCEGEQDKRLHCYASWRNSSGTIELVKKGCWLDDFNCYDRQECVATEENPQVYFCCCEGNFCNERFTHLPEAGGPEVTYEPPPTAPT

Turning to B1, in assay [1], the IC50 stood at 60 nM.

Consider B2, for which the “RGA and ActRIIB binding assays (not said which), IC50” value in assay [2] is 0.2 to 0.35 nM.

Molecule B3 showed an IC50 in assay [1] of 2.4 nM.

On to B4, for which the half-inhibitory concentration (IC50) (with mature human BMP-11; in assay [3]) was 0.2 to 0.4 nM throughout. Besides, the “pGL3(CAGA)12 reporter gene assay (RGA) in A204 cells, GDF-8 at 20 ng/ml, IC50” value in assay [2] was 15 ng/ml to 30 ng/ml (2×) and 0.1 nM to 0.2 nM (2×).

Take B5: the half-maximal inhibitory concentration (IC50) in assay [1] came out at 1.7 nM.

As to B6, the half-maximal effective concentration (EC50) in assay [4] is 0.04 µg/mL.

By IC50 is commonly meant the concentration that inhibits the measured activity by half. A higher IC50 goes with lower potency. As a reminder, the EC50 is the concentration giving half of the maximal effect.
